The DeepSol protein solubility set

Assay: soluble on expression in E. coli; label from the status in PepcDB or PDB records

Soluble on expression in E. coli, not soluble:
MGSDKIHHHHHHMAQKNNNVIPMTFDDAFYRKMAKQKFKQREYKRAAEYFEKVLELSPDDLEIQIDYAQCLVQLGIAKKAEHLFYDNIIYNRHLEDSFYELSQLNIEVNEPNKAFLFGINYVIVSDDQDYRDELDQMFDVKYQSEEQIELEAQLFVVQILFQYLFSQGRLKDAKNYVLHQPQEVQDHRVVRNLLAMCYLYLGEYDTAKALYEALLQEDSTDIYALCHYTLLLYNTKENEQYQKYLKILNKVVPMNDDESFKLGIVLSYLKQYRASQQLLYPLYKKGKFLSIQMYNALAYNYYYLGEEDESHYYWDKLKQISKVEIGHAPWVIENSKEVFDQHILPLLQSDDSHYRLYGIFLLDQLNGKEIVMTESIWQVLENLNNYEKLYLTYLVQGLTLNKLDFIHRGLLTLYQNELFVSENDLMVAWINQGELIIAEKVDLTDVEPYIGAFIYLYFKNQPRNVTKKQITTWLGITQYKLNKMIEFLLSI
MGSDKIHHHHHHMAQSSIEWTEMTWNPTTGCTKISAGCKFCYAEIMSKRLKAMGIDKYKDGFKVNIYPDALSIPYTWKSSKVVFVNSMSDLFHEDIPLDYIKKVFQVMNENPQHVFQVLTKRAERLFEVYKELKWTHNIWMGVSVENDKVKNRIDLLRKTSAKVKFLSLEPLIGPLPKLNLKKIDWVIVGGESGHRPRPMDSDWVLDIQEQCLKSDVAFFFKQWGGRNKKANGRLLNGRTYDEMPEIMEIEKVK
MGSDKIHHHHHHMAQVDLLNVKGEKVGTLEISDFVFNIDPNYDVMWRYVDMQLSNRRAGTASTKTRGEVSGGGRKPWPQKHTGRARHGSIRSPIWRHGGVVHGPKPRDWSKKLNKKMKKLALRSALSVKYRENKLLVLDDLKLERPKTKSLKEILQNLQLSDKKTLIVLPWKEEGYMNVKLSGRNLPDVKVIIADNPNNSKNGEKAVRIDGLNVFDMLKYDYLVLTRDMVSKIEEVLGNEAGKALTA
MGSDKIHHHHHHMARKRDDAALHLPLPEERQVTAFLQAHPDFLVRHPDLLLSLSPPSRWADDDGVLDMQVFMIDRLRDEVERVRGAAEHLIHTSRSNMSIQTRTHRAVLSILGAESMAELVEAISDDLPALLDVDVATLCFEKSEEALPDLLAPGILTLPGGTVAQIMGGADRDCALTEEMPGDPALFGDGAGLVQSSAVVRLSPGGKSPDGVMALGSRHGRTFHAGQATELITFLARVVEGSVRRFVG
MGSDKIHHHHHHMARLAKIKVKTLEQRLWDTADALRGNQEPSEYKHVVLGLVFLKYISDRFEERRRAIETSLSDPNSEEYIPNEARRSEFLEDRDEYASHNVFWVPELARWGYLQDNAKLPKIGQQLDQAMDLIEKENPIIRGVLPRNYGREGLDKSRLGQLVDLIGSIGFTESDDHGSDDVLGRVYEYFLGQFAGKETGKDAGAFYTPRSVVKTLVEMLEPFHGRVYDPACGSGGMFVQSAEFVTAHGGERTDISVYGQEFTDTTWKLAKMNLALRGIEADLGDRSADSFTQDLHRDLRADFIIANPPFNVSNWWNAKLADDPRWKYGTPPEGNANFAWVQHFLHHLSPKGTAGFVLSNGSLSSKSSGEGEIRRKLVEADLVDCIVAMPDKLFFNTGIPVSLWFISKERHGNGHRARQGEVLFIDASKLGRMENRRLRVLDDDRDIAKIAGAYHAWRNHDGGYEDVPGFVVAATLEEIRQHDFVLTPGRYVGTKEAEADWEPVEDKIARLTGELYAEFERGRKLEEVVRERLGGLNAD
MGSDKIHHHHHHMARLPLKQFLADNPKKVLVLDGGQGTELENRGIKVANPVWSTIPFISESFWSDESSANRKIVKEMFNDFLNAGAEILMTTTYQTSYKSVSENTPIRTLSEYNNLLNRIVDFSRNCIGEDKYLIGCIGPWGAHICREFTGDYGAEPENIDFYQYFKPQLENFNKNDKLDLIGFETIPNIHELKAILSWDESILSRPFYIGLSVHEHGVLRDGTTMEEIAQVIKDLGDKINPNFSFLGINCVSFNQSPDILESLHQALPNMALLAYPNSGEVYDTEKKIWLPNSDKLNSWDTVVKQYISSGARIIGGCCRTSPKDIQEISAAVKKYT
MGSDKIHHHHHHMARVKEEADRISEQANSHIENIRRQIEQEKNDWAAEKQKLIEEAKAEGFEQGVALGKAEAMKQYAELIGQANTITEMSRKAVEDKLEDANEEIVELAVALAKKVWQQKSDDKEAFLLLVQQVINEVKEYDDISIYVDPYYYETIFQQKDEIQQLLYKECRLGIYADEKAQKGTCYIETPFGRVDASVDTQLMQLKDKLLTALEAGAAE
MGSDKIHHHHHHMASPEYEEYPSADGVMDDATLKDAEIRDWNWAVLPKGSVSTRFAAPSGSLAMVAMGKPQNPRVVLVPGATGSKEDFAVMMPELAEAGFYVLSYDLAGQYESAGAGPENLVPPRRHYDYELFVNDFVAVLESGGVPAHVVGYSFAAIVAQIAYSKRPELFRSFTLLSCPPLTGQCFRGISRFGRFTGLANGRVGAALMIWGIRRNVNKVSPNRLRFVRNRFRFTRRQSVRDIYGLMKNVPDLREHLAAATVPKFVAVGEHDLWPLHLHRQFAQSIGARISVYRGGHSPSETSPHQFGRDLLAMYAEGG
MGSDKIHHHHHHMATLTTNTPIATGSTFSAASLQFLNKLAQNNSRDWFKAHQAEYEETVRTPALQFIEQMQPSILALSPRLTAVPKKVGGSLMRPQRDSRFSKDKTPYKTNIGIQFRHFQGKDVHAPGLYLHIAEDGCFIAAGIWHPESKALNAIRTCIDENPNGYKKALQTLQNHGFTMDGDSLTRPPKGFDKNHPMLTELKRKDFIAVKNIAFEELCRPDAACFCAEQFAHCTQLMAYLCFALDLDF
MGSDKIHHHHHHMATTTIYEDLSAAYDLENMQALMATKDLLGAMLRIHFILEAFLDIWCNKITNCEDFFDLKRFTSFDTKLEISKKLGLPSELAVVFKLFNKIRNKFAHRPNYVICSNDLDNIHQAINQINTHDNHSKFTMIVFNEREIRWDTPDIPIIDSLLLNYFTLSQKVNDVFANEFSKRNISFTIQGQQA
MGSDKIHHHHHHMAVIYYDKDADLNLIKDKKIAIIGYGSQGHAHALNLKDSGLNVVVGLREGSKSWKKAEEQGLTVKTIEEAAKEADIIMILIPDEHQPEIYKKYIEKHLTEGKMLMFAHGFNIHYHQIIPPKNVDVTMIAPKSPGHIVRREYVEGRGVPALVAVYQDYTGKAKDIALAYAKGIGVTRAGVIETTFKEETETDLFGEQAVLCGGVTALIKAGFETLVDAGYQPEIAYFECLNELKLIVDLIYEGGLSFMRYSVSNTAEYGDYISQEKIVTKEVRENMKQMLKDIQTGKFAKDWILENQAGRPYFYTMRKKESEHLIEKVGKELRKMMPWLKERNVDEE
MGSDKIHHHHHHMAVRKAMKYSLGPVLWYWPKETLEEFYQQAATSSADVIYLGEAVCSKRRATKVGDWLEMAKSLAGSGKQIVLSTLALVQASSELGELKRYVENGEFLIEASDLGVVNMCAERKLPFVAGHALNCYNAVTLKILLKQGMMRWCMPVELSRDWLVNLLNQCDELGIRNQFEVEVLSYGHLPLAYSARCFTARSEDRPKDECETCCIKYPNGRNVLSQENQQVFVLNGIQTMSGYVYNLGNELASMQGLVDVVRLSPQGTDTFAMLDAFRANENGAAPLPLTANSDCNGYWRRLAGLELQA
MGSDKIHHHHHHMAVTVENLTKRYGEKVALDNVSFDVKKGDILGIIGKSGAGKTTLIKILRGVESFDEGKIEVCGKTENLREITAIHLQRNFALWAEPAIYNIIRKLYAVRTDSDEGLPLEEEMEEYRKDATEILKLVGLEHKKDAYSNILSGGEKQRLILGRQLAKIYAKNGDGVLLLDEPATMACPASKQILLDVLKNINEKLGVTIIVTSHLPEIHKYLCKSCILIENGKIIMKDTPEKVVDEFLKDMVEAYDRLSKPTDKTVVEVEDASKRYYVVNGGETLNLKDISFKVKEKEILSILGPSGTGKSVILRLLAGLEAPDKGVVKLEGIDLKDFGWNRMNLRRKIGIMHQEFSLAHYLTVNELLKYRLGVKSIETVESAKLKAAELGISPKMVDGLYQLLDLPETEMRNKLDKIGISEMVVRKLFPAKPVEYDANELLEALDLNKETLNKKPTELSGGEKVRVAMALQLALEPDILLLDEPFGDLDPLTLREVSNYLKKINDTVGTTIILISHHVELIKEISDRAILIDEGKLLMNGNPEEICEKFIERSNSKFMNQ
MGSDKIHHHHHHMAYLTIIKNGETIDHRKYGLKLLSFRKESLTHRTNFEEIGGRHGAIDTGTTFGERKLKATFLMQGVDHLDYQLMIDEVYALFACEDSIELIDSRQPGKVWTVKPSSTFEPDDLNPRSGKFEIEFTSPLPFASSYGSTLDPFTFGEEVWQIGQGLIPSDSLVYRHRTTRFSIFNAGNVEVDPCLEMPLNIVYKGASSNFSIKNKTTGQTISYNGTSKSTDSIKLEGLRHLKNGISIYGNTNRGYVSLKPGWNDFELTGTSGSFEITFDFFFFYK
MGSDKIHHHHHHMCNISHSQVQYLATKGDGDLPAGTAAGTGRTRTFTLEEARIWVQKVSDIYQTPLVTRLKEPDGKIIITAQLKGGSAKTTTTMCLAQGLSLRGRKVLVLDLDPQASLSELCGLYAEKDVTPEDTVLPYIYDQEIEGGLEARVQSTYWDGIDVIPAHTELIGAEFHLPAMQKMRPGFRFWTVLRQGLEPLRKKYDYILMDTSPSLSYLNLNALMAADAMVMPMVPENLDFISSLSFWRLFSDVSKSFIKYEKDKKYDFVSLILSRVDYGRNSSAPIVRAWAQSAYENWLHSIEVPASSVMSTGALAFSTVFDISSTHSASKSLQRVRQPLIDYCRWVDEIYSEKWRSAQ
MGSDKIHHHHHHMDAAAAPERIDLAGLVADLNALLRLKTTVIGMKLFRTVAEMEAVPKIRRPNAIHTTDQIVSMASRLGWTVGITAADLVGEQCRAVIGLAPQDAAWLAGRSYVGVWHATPEDASARQQALDVVPFGHHQAMAVSPLASGRLDPPDICLVYATPGQMIILINGLQYAGYKKFEWSVVGETACADSWGRALKTGEPSLSLPCFAERRYGGVPDEEMLMALSPAHLAKAIDGMKQLAKNGLRYPIAPYGIQADVRAGMGVSYGNK
MGSDKIHHHHHHMDAANVDLKAFTEDFYHRLCGAHLESVKETLVYLKHETDVWVEVTTLLIPGENDSPEEIDAQTKWMMAALGPDVPLHFSAFHPDWKMKDKTNTPPETLTRARDIAIRNGLRYVYTGNVHDPAGGGTYCSGCGALLIGRDWYELSTWALTPEGHCRECGTPLPGRFEAAPGTWGRKRQPVRFQR
MGSDKIHHHHHHMDDIKSQIKELRLGAKIRKLRQDRRLTLQELSELSGLSKPLLSQIENDQVTPPIATLLKISKGLKVGIHYFFEEEEDQQKVVLTRAAQQQPTRRRSGNDAPHGYIYRSLAPGIRHKPMEPFLVEFELTDWSDSFFYRHDGFEFIYLLDGELEFHYGSDVMRLLPGDSIYYDSSEPHGYVSVGEERARAVAVLYTRD
MGSDKIHHHHHHMDERWMVMKITIVFENHAGYRKGLIGYHGFSALVEANGYRVLVDTGTDGKVLLNNMSELGISPDDIDALFITHGHYDHTGGLRELLSARTEALDIYAHPGIFKRRLALKPKKREIGIPFTREELEELGGKFILSDKSKEILPGFISSGEIERITWDRAVGYFPDGSKDPVRDDMALIVEEGSKSVVITGCGHSGIINIAIHSKKLTNNRIAALIGGFHLKGIERSLLDEAVKKLRELEIEKLYPGHCTGIEEFAYLWSKFGNVEGIHVGKEIKI
